# ± gives the standard deviation of the averaged measurements.
# Test system: Saccharomyces cerevisiae
# Assay: protein stability index of tFT-peptide fusion (C-terminal peptide) (PSI (0-1 scale)); higher = more stable (slower turnover)
# Settings: genetic background: wild type; temperature: 30 C
# 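Note: PSI is a weighted mean of sequencing reads over stability bins, variants kept only with over 10 reads, mCherry proximal and sfGFP distal, peptide attached via GGGS linker.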
row,Sequence,protein stability index
1,PLSPPPPTLPLP,0.714 ± 0.036
2,PLSPPPYPPRPL,0.721 ± 0.024
3,PLSPSPPPAFPA,0.794 ± 0.039
4,PLSWVLFSFFHA,0.697 ± 0.062
5,PLTPPLPPSPPP,0.711 ± 0.026
6,PLTTIPSPNSLE,0.666 ± 0.032
7,PLTVPLPLALSP,0.684 ± 0.047
8,PNHLDPPTLHVN,0.714 ± 0.021
9,PNKRLKERGDPS,0.695 ± 0.086
10,PNSSLLNLPRPP,0.744 ± 0.041
11,PPAAHPFAPFPS,0.71 ± 0.014
12,PPACPYPFRPLP,0.668 ± 0.025
13,PPACSPSPPRSS,0.723 ± 0.028
14,PPAHIFHPPPAR,0.699 ± 0.081
15,PPALHRPFPPPP,0.666 ± 0.016
16,PPALLAPAAPLP,0.652 ± 0.07
17,PPALPRFPACTT,0.714 ± 0.056
18,PPALSSNPVIPG,0.626 ± 0.099
19,PPAPAPPAPPPL,0.649 ± 0.027
20,PPAPLPAPRLAL,0.709 ± 0.036
21,PPAPPHPPPLSP,0.695 ± 0.04
22,PPAPPPASPGLV,0.7017 ± 0.0009
23,PPAPPPCTPPPP,0.69493 ± 0.0002

row,Sequence,protein stability index
1,PPATLIWAWFFR,0.67 ± 0.022
2,PPATPPRPPLPS,0.675 ± 0.057
3,PPATRSLSAASP,0.722 ± 0.0095
4,PPCAPPPSPLAC,0.684 ± 0.043
5,PPCHPPPTTSEK,0.677 ± 0.032
6,PPDTPRTQKADT,0.755 ± 0.029
7,PPELHTIRARQI,0.58 ± 0.082
8,PPFASSPPFIFL,0.705 ± 0.062
9,PPFLTTYPHLAP,0.71 ± 0.031
10,PPFPLSPLPPPL,0.71 ± 0.0047
11,PPFPPLPSPFTS,0.708 ± 0.018
12,PPFRSPPRHDPL,0.662 ± 0.015
13,PPGLPPIRCPPT,0.631 ± 0.037
14,PPGPPRPPPRTP,0.689 ± 0.0036
15,PPGSPPSLPPLP,0.711 ± 0.057
16,PPHASRAPPFPR,0.671 ± 0.047
17,PPHLPPSLSVLP,0.663 ± 0.057
18,PPHPLLSPPPFP,0.821 ± 0.088
19,PPHPPPPATPCP,0.682 ± 0.013
20,PPHPPPPFPPPP,0.744 ± 0.015
21,PPHPPPTTVHLA,0.7052 ± 0.002
22,PPHPSTPIPPPR,0.672 ± 0.012
23,PPHPTPRTLPSP,0.691 ± 0.0027

row,Sequence,protein stability index
1,PPHSHRSRHPPP,0.688 ± 0.061
2,PPHTLTSTIRPN,0.73 ± 0.019
3,PPILRPAKSAQG,0.705 ± 0.024
4,PPIPPPPPLPPP,0.621 ± 0.023
5,PPIPSLPPASFP,0.69 ± 0.044
6,PPLGPRALPSPA,0.67 ± 0.038
7,PPLGPRARPPPR,0.734 ± 0.024
8,PPLLPPPSPPPP,0.684 ± 0.04
9,PPLPLPPPLLPP,0.659 ± 0.059
10,PPLPPAPLPLPT,0.639 ± 0.051
11,PPLPPLLFRSPP,0.687 ± 0.017
12,PPLPPLPVPPTL,0.738 ± 0.11
13,PPLPPPAPSFPT,0.684 ± 0.06
14,PPLPPPQDPRLP,0.7 ± 0.097
15,PPLPPPRYLPPT,0.7124 ± 0.0027
16,PPLPPSPLPLPP,0.664 ± 0.023
17,PPLPPSPPFPPP,0.653 ± 0.015
18,PPLPSAPSTYPA,0.634 ± 0.012
19,PPLPSMVLQRIY,0.589 ± 0.0065
20,PPLQFFLYRSWV,0.664 ± 0.044
21,PPLRPAPPPPLS,0.7 ± 0.12
22,PPLSAPPPSPSP,0.702 ± 0.065
23,PPLSGNLPCFRF,0.713 ± 0.03

row,Sequence,protein stability index
1,PPLSPPLPPPPS,0.7188 ± 0.0062
2,PPLSPPPPPPVP,0.688 ± 0.066
3,PPLTHPPPPLYL,0.694 ± 0.008
4,PPMALPELPLFP,0.738 ± 0.071
5,PPNLLPRPPPRG,0.559 ± 0.047
6,PPPALPPPPFPP,0.591 ± 0.011
7,PPPALPPPPRPP,0.604 ± 0.065
8,PPPAPPPLAPPL,0.713 ± 0.0086
9,PPPAPPPPPSSR,0.667 ± 0.007
10,PPPAPQTATPHR,0.714 ± 0.022
11,PPPCPPPPLSRP,0.666 ± 0.058
12,PPPCRPSQFPPL,0.742 ± 0.015
13,PPPCSFTRKRQR,0.664 ± 0.014
14,PPPDKTPERRPC,0.644 ± 0.054
15,PPPFPPPPARSL,0.474 ± 0.043
16,PPPFRFPALLPP,0.6778 ± 0.0007
17,PPPFSPLPLPPS,0.71 ± 0.044
18,PPPGPPLPPGLP,0.749 ± 0.033
19,PPPGSPLRPSRL,0.748 ± 0.12
20,PPPHLPPPPPTQ,0.658 ± 0.059
21,PPPHPALPHPLH,0.682 ± 0.01
22,PPPHTRVIPSSP,0.6763 ± 0.0052
23,PPPLCLHAPFPP,0.626 ± 0.045

row,Sequence,protein stability index
1,PPPLDSPPPPPP,0.664 ± 0.019
2,PPPLLPVPQPLF,0.672 ± 0.087
3,PPPLLSPLSPPP,0.571
4,PPPLPAAHFSTP,0.663 ± 0.022
5,PPPLPPPPHGVP,0.6889 ± 0.0066
6,PPPLPPPPPTRP,0.616 ± 0.063
7,PPPLPPSPPHHP,0.689 ± 0.04
8,PPPLPRPRSTAL,0.674 ± 0.043
9,PPPLTVPLLSPP,0.662 ± 0.046
10,PPPLVPPPPSSL,0.731 ± 0.011
11,PPPNPPATTTTP,0.6685 ± 0.0012
12,PPPPALLPPPPA,0.781 ± 0.27
13,PPPPAPPLPPPP,0.707 ± 0.039
14,PPPPFWPLSPAL,0.713 ± 0.039
15,PPPPGCLPRPAS,0.699 ± 0.021
16,PPPPHPPSPSLP,0.664 ± 0.1
17,PPPPHTPPLPRS,0.757 ± 0.048
18,PPPPLLPRTPPH,0.54 ± 0.044
19,PPPPLLPSPFPP,0.653 ± 0.031
20,PPPPLPATPGAS,0.6857 ± 0.0018
21,PPPPLPPPPSPL,0.653 ± 0.078
22,PPPPLPPRPPPP,0.704 ± 0.026
23,PPPPLPRPPPPP,0.615 ± 0.061

row,Sequence,protein stability index
1,PPPPLSLPPVPL,0.736 ± 0.012
2,PPPPLVPLPASP,0.688 ± 0.072
3,PPPPPAPPALPP,0.6734 ± 0.001
4,PPPPPAPPLSLP,0.61 ± 0.01
5,PPPPPARPSVPP,0.673 ± 0.077
6,PPPPPASPPSAP,0.605 ± 0.063
7,PPPPPDAPRSSL,0.7043 ± 0.0066
8,PPPPPHPALPVP,0.734 ± 0.016
9,PPPPPIPRPPHA,0.73 ± 0.03
10,PPPPPLPLCRRP,0.756 ± 0.06
11,PPPPPLPLPPPF,0.697 ± 0.023
12,PPPPPLPPAPPP,0.558 ± 0.022
13,PPPPPLPPLPCP,0.695 ± 0.03
14,PPPPPLPPPPTP,0.652 ± 0.058
15,PPPPPLPPQLSH,0.756 ± 0.011
16,PPPPPLPSPTPP,0.735 ± 0.024
17,PPPPPLPTPPPS,0.653 ± 0.036
18,PPPPPLSPPSLV,0.725 ± 0.02
19,PPPPPPCSPATS,0.747 ± 0.14
20,PPPPPPLPPPPL,0.671 ± 0.019
21,PPPPPPLSVPPL,0.695 ± 0.077
22,PPPPPPPHHSPP,0.722 ± 0.047
23,PPPPPPPPPSPP,0.704 ± 0.0066

row,Sequence,protein stability index
1,PPPPPPPPPVLP,0.675 ± 0.0081
2,PPPPPPPSLLLP,0.828 ± 0.041
3,PPPPPPPTPPPP,0.673 ± 0.014
4,PPPPPPRPLAPS,0.679 ± 0.029
5,PPPPPPRPPSAH,0.708 ± 0.087
6,PPPPPPRPPSSP,0.694 ± 0.022
7,PPPPPPSLPPPS,0.714 ± 0.015
8,PPPPPPSLPYLL,0.771 ± 0.042
9,PPPPPPSPLTLP,0.775 ± 0.086
10,PPPPPSAPSPLP,0.665 ± 0.05
11,PPPPPSPPPPPH,0.704 ± 0.0074
12,PPPPPYPPCIPL,0.695 ± 0.048
13,PPPPRDPLPLPR,0.677 ± 0.018
14,PPPPRPAPSAPY,0.676 ± 0.045
15,PPPPRPASPGSP,0.622 ± 0.065
16,PPPPRPLPLPTT,0.751 ± 0.056
17,PPPPRPLPTSRP,0.689 ± 0.012
18,PPPPRPPPALLP,0.736 ± 0.021
19,PPPPRPPPQSPS,0.724 ± 0.021
20,PPPPRRAPPPGT,0.699 ± 0.021
21,PPPPRSPPHPLL,0.69 ± 0.013
22,PPPPRSPVCLPL,0.792 ± 0.011

# From the supplement of paper PMC10724198
